Measured values reported in the DeepSol protein solubility set.

Assay: soluble on expression in E. coli; label from the status in PepcDB or PDB records

| Sequence | soluble on expression in E. coli |
| --- | --- |
| MKEKDLIRFMDRMIEERKAEYALGTAHIYQASRNALSAFLKAHDIPFKRVRPELLKQFERFLRRRGNSWNTVSTYMRVLRAVYNRAVDRRLAPHVPHLFKAVYTGTQADIKRALKAEEMGQLLDTKCTRKQSELLQKTHHLFVLMFLLRGLPFVDLAYIQKKDLNGNILTYHRRKTGRQITITVTKDAMNIIREYMDTTTESPYLFPILSAEGGEDTIYREYQQALRIFNYQLTKLGELLGLTTELTSYTARHTWATLAYYLEVHPGIIREAMGHSSIKVTETYLKPFNIKKLDETNLSIIGYAKRSFEG | not soluble |
| MTEASIKLGTTSDKLEYEVIDKGSNGFLGIGSRDAVIKVKKAEASVEDEIREFLDSVFKAMKLEVTIDIKVDEDNRNVDVELNGPEMGVLIGKRGQTLDSLQYLTNLAINKQSENYYRVKIDTEDYRKRRRETLENLAKNISFKVKRTKRPVSLEPMNPFERRVIHSALQNDRFVETHSEGDEPYRHVVVTLKK | not soluble |
| AHHHHHHGSKTFLTEQQIKVLMLRAKGYKQSEIAKILGTSRANVSILEKRAMEKIEKARNTLLLWEQINSKVIVEIKAGEDIFSIPEKFFKKADKVGVKVPYSTAEIITFLVEHAPVEDRLAKRDFVLFLDSKNKLRIGDCLVIEEIKED | soluble |
| GPGSMNKSAKDTANPLFPATAIATIDVRAIVANYRTLAQHVAPTECSAVVKANAYGLGAHKIAPALYQAGCRTFFVAQIEEALQLKAVLPENVMIALLNGFPHKAEEFVAQSGIIPLLNSWSTIEDWQTLCQKKNKKFPAIIQVDTNMSRLGLDKKELQKLIKNPTIFEKAEIKYILSHLANGEDASHSSNNKQLAAFKRVLAQLPTCKVSFANSGGIFLGSDFYFDLVRPGIALYGVDPHGKHPTPLKAVVKVEAQVLQSRFIDAGIPVGYRESFMTRRPSTLATISIGYADGWPRILSNKGTVYFNGHKLPIVGHISMDSIIVDATDLDKKPQRGDWVELIGPHQPLEKVSTDTNTIPHEILTSLGKRYKRIYI | soluble |
| MGSDKIHHHHHHAQQTSEVDLIDIAGGMEKLTELKVSDLGKTIRYIPLETTDSCLIGDFPNIKLLDDKIMVYNGKQCLLFDKETGKFICSVGHRGDDPEAYSSTCGYLNPKNQLLYFNRDPNQLVKYNQKGNFAGVITIPSPETSTGNIQINRPGMNGFVFSDSIIIGHYVGGLGQRCPSSVLYFSDKGNYIDTIPNIIPELGTGQVGDINNISVRKGFGLLEGIIQIQYNNGKQSICVPGYTALWKCNDEIRFKELFTDTIYTLKHNQLEKYIIFNTGKYYWPASERTLTDNNSDRIMISYAIENDKLLYFQFIRGLYTDKHILYNGIYDKNTKVTNIALAENNFVDDLTHFMPFTPSFLNEKGECASLVQAADILTWLEEHPEVKIEKELGVLKNLNEESNPVVVLVK | not soluble |
| MGSSHHHHHHGGTGENLYFQGGSGHPASLAAHAFGDASTRSPTHTLPSRCHLFLSLSLSTAAVRRSRASPPLAPTRRTHECLSASHTRTCRQSASFSPLEHPFSFSVAILSSTMPREIKTLKEFLAICSRKDARCVKVKHNPSATKFKVRCSRYLYTLVVNDKKKADKIERSIHPSVKKIAVTARSHAKTNAGSKQ | not soluble |
| MTEHPRAHTAHLRTARLELTPLDPAADARHLHHAYGDEEVMRWWTRPACADPAETERYLTSCAAAPGARLWTIRAPDGTVPGMAGLLGGTDVPGLTWLLRRDSWGHGYATEAAAAVVGHALEDGGLDRVEAWIEAGNRRSLAVAARVGLTERARLAQHYPHRPGPHEMVVLGKARAEEPLTTLAVITELPVRDVAATLRLVEAALGARTAFAIGDPPEFAEAALTPWSAGPRFRLAAVPGPGPVEPVRLHLDAAGTADSLHRRAVDAGARVDGPPVRRPWGRSEFVITLPEGHELTVSAPV | soluble |
| MRRGGSMGPPSGDPYQSRPSPGGYYYNRSTPGGQPAPSPSHSQQSASSHHPRGVPMSQPIARRSDYRTGSEQMTPRSDHRGPSMGYGNGGSVDQRVDDVTPSYYVEHLATFAVGRQFGLTFPADGIRKLKQMEKNSAIWAQPLILRFRHNAVTVEDDNGELVEQFPLELIEQPTAHVSNDSRETYNNVLLFVVREDRKRMSTPTEMHIFQCIRVSATDVAEDLKNYVQGQFRRVRNGRRTAAPTHLQAQQQQMPFYPPDDASISSETSEMFERDVNTLNRCFDDIERFVARIQSAALAQREIEQQNHRYRTANRRDKKNQQPPDPNGILFMRAQLPLESEFVDILKKFKLSFNLLAKLKNHIHEPNAPELLHFLFTPLAVILEACHWGLGRNVAPTVASPLLSLEARELMQNCLTSHESDIWMSLGEAWRTPPEDWTKPLPPPYRPIFNDGFAPYGVADRAMATPNQIHRGHSAPPEHFRQPPPRERNMVDTLEFDRLTLERERLEFEKAKIMERESRLRHEEKQIEDEKRRMHAEKDLITKETTQPVPPPAAVVTHQPITKRYDPPISISPPPQRNNYSHVKVTVDSDTSPRQQAFIDDIVAKGGKLAVVTYDRGGQNTKELTVHKGEYLEVIFDERNWWECKNMHQRVGYVPHTILSMVPFEQQQYAQQYNVMSSQHNVIQINDGVGKMEVFISKTCNFILITTCNLFCSTTKTAVPDIYRAFVMNDETRQMSGTPCENSRSFLSSNTLSSSPENAPEIPLLENLKFNHNKLYLFHILSPNHHNNSSSTGGYNNGHHQGPGMLPEDAPSYVKERQAQNVYRPPPPPLVSDAGVQVEIRREHVAPPPPPVVIPPPPPPVRTPTMEELLRMQQQQQQKQRKPPVEEPVYQPQPAQRAGLEIWRRNQNPQLIQEVTETVGQHSGDILRPAMQRATRVAINEKSSPEDVTRWLQEKGFSPRVIDLLDGQDGANLFSLSKLHLQQACGRDEGGYLYSQLLVQKKRSGFRTHTGDELKAILNHRRTHVELSNEAAADEPVFTINPIL | not soluble |
| MLTAQTKNTQTLMPLTERVNVQADSARINQIIDGCWVAVGTNKPHAIQRDFTNLFDGKPSYRFELKTEDNTLEGYAKGETKGRAEFSYCYATSDDFKGLPADVYQKAQITKTVYHHGKGACPQGSSRDYEFSVYIPSSLDSNVSTIFAQWHGMPDRTLVQTPQGEVKKLTVDEFVELEKTTFFKKNAGHEKVVRLDKQGNPMKDKNGKPVYKAGKLNGWLVEQGGYPPLAFGFSGGLFYIKANSDRKWLTDKDDRCNANPGKTPVMKPLTSEYKASTIAYKLPFADFPKDCWITFRVHIDWTVYGKEAETIVKPGMLDVRMDYQEQGKKVSKHIVNNEKILIGRNDEDGYYFKFGIYRVGDSTVPVCYNLAGYSERLE | soluble |
| MAMYEQRYNSPFLVHDDGPNAPLEHQFAISKLTFELGLLYYQKRTIPFIPLPETPLNEGPGHAVPDVILYDAVAEDTKVIIEVCQNNGQKNDLKKVIRLIEDTEYGILEGFVYNYKSREWFRYRKGDGGAATASSVSEVMGIDMGGFV | not soluble |
| MALYQRWRCLRLQGLQACRLHTAVVSTPPRWLAERLGLFEELWAAQVKRLASMAQKEPRTIKISLPGGQKIDAVAWNTTPYQLARQISSTLADTAVAAQVNGEPYDLERPLETDSDLRFLTFDSPEGKAVFWHSSTHVLGAAAEQFLGAVLCRGPSTEYGFYHDFFLGKERTIRGSELPVLERICQELTAAARPFRRLEASRDQLRQLFKDNPFKLHLIEEKVTGPTATVYGCGTLVDLCQGPHLRHTGQIGGLKLLSNSSSLWRSSGAPETLQRVSGISFPTTELLRVWEAWREEAELRDHRRIGKEQELFFFHELSPGSCFFLPRGTRVYNALVAFIRAEYAHRGFSEVKTPTLFSTKLWEQSGHWEHYQEDMFAVQPPGSDRPPSSQSDDSTRHITDTLALKPMNCPAHCLMFAHRPRSWRELPLRLADFGALHRAEASGGLGGLTRLRCFQQDDAHIFCTTDQLEAEIQSCLDFLRSVYAVLGFSFRLALSTRPSGFLGDPCLWDQAEQVLKQALKEFGEPWDLNSGDGAFYGPKIDVHLHDALGRPHQCGTIQLDFQLPLRFDLQYKGQAGALERPVLIHRAVLGSVERLLGVLAESCGGKWPLWLSPFQVVVIPVGSEQEEYAKEAQQSLRAAGLVSDLDADSGLTLSRRIRRAQLAHYNFQFVVGQKEQSKRTVNIRTRDNRRLGEWDLPEAVQRLVELQNTRVPNAEEIF | soluble |
| MHPASGVMVTVETPETDTVFNRCRPAADGDIVVPHGSTAVLGTTSVDVDDADEFATPDAAVERVIDECSALLPAASDAPIRTTYWGVRPLYSPSDYGDDARAISRGFYVLDHADRDDTAGLTTVVGGKLTTHRLMAEATADLVADRLGVTEPSRTANEPLPGHDDPERLDALVDTFDAASPADADARLEHHHHHH | not soluble |
| KLRQWLIDQIDSGKYPGLVWENEEKSIFRIPWKHAGKQDYNREEDAALFKAWALFKGKFREGIDKPDPPTWKTRLRCALNKSNDFEELVERSQLDISDPYKVYRIVPE | soluble |
| MGHHHHHHSHMQQAPVVLSTLDKLLNWGRSNSLWPLTYGLACCAIEMMATGGSRFDFDRFGTIFRASPRQSDVMIIAGTLTKKHAEFMRRLYDQMPEPKWVISMGSCANTGGMFNTYATVQGADRVVPVDIYLPGCAPRPETLQYALMVLQDKIRRSKAIKQDAPKRLV | not soluble |
| MKAVAINGYGTVGKRVADAIAQQDDMKVIGVSKTRPDFEARMALKKGYDLYVAIPERVKLFEKAGIEVAGTVDDMLDEADIVIDCTPEGIGAKNLKMYKEKGIKAIFQGGEKHEDIGLSFNSLSNYEESYGKDYTRVVSCNTTGLCRTLKPLHDSFGIKKVRAVIVRRGADPAQVSKGPINAIIPNPPKLPSHHGPDVKTVLDINIDTMAVIVPTTLMHQHNVMVEVEETPTVDDIIDVFEDTPRVILISAEDGLTSTAEIMEYAKELGRSRNDLFEIPVWRESITVVDNEIYYMQAVHQESDIVPENVDAVRAILEMEEDKYKSINKTNKAMNILQ | soluble |
| MGSDKIHHHHHHMKAAVYEGKKAIKMTELPTPKAGPNDVVIQNIYAGICGSDVAVYNHGSGTGHKIETDHEFGHEAVSKVVEVGDDVHDFKIGDRVYPYPLLARGDPSRAGSMGGFSEYILIPNAKLNRQLYLVPKEIDNHVAAMIEPFTVGTRAAKQTRPDKNDNAIVYGTGTIGMAAAVALKHLGVKQVMLVDLSDYRLNVAKELGFLTVNSSRDDVRSQAIEAFGKAEYSLHGEAPDTQIFLDAAGHNSILEDFLQFGPVGSRFVTVGVNNSKPQIDFLELIFGSKSVGGSGGYRPEDVQTVFEIMKERQSDLRKMVSQEFDWQDLEKGIQTATDTTISEKVLINYHL | not soluble |
| MPISEDLKQAIRQRARYICEYCHSPERLSANRFTIDHVIPKSLGGSDAFNNLALACRRCNERRYNFVASIDPQTKTIVAIFNPRQQNWAEHFIWTNRGIIIQGTTTTGRATCIRLDLNDTRYPEEDSIQETRRFWLKTGLHPPIDDPCKNLEHHHHHH | soluble |
| MSVDVKSDFSENESSSTPSPTTVPADVTWPHYPMMPFMQPHPLREKMLQPTFDPQIYGRWSQMGDTGFYGHPDLYPFGLPQLAANGQIPAVEAVDVKPPLSNGSSSSDSGMYPSPSDMMTPFPSTSSGAASSSELSAAAAAAANYQMRAATCYQQSVWPFMDYQQFQGFSWKMPLGNNHGKDRRSSSDGKTLPTGPGTNNVRVRTADKYRMVYSDYQRLELEKEFHTSPFITSDRKSQLSTMLSLTERQIKIWFQNRRAKDRRDKQKIRL | not soluble |
| MPEITVLMPVRNGERYIKESIDSVLNQTLTDFEFLIIDDGSTDRTVEIIQGYTDKRIRLVRKEHQFIQNLNEGLELASGSYIARMDADDIMHTERLRIQLKRMKKNPDITVCGTWAKIFSDKGNERNVSHLGYGIIHEPVLELLKYNMLLHPSVMIKKEFLLNHHIEYQNYPCVEDYKLWFDIAKAGGILFVEPQELLMFRRSDTQVTVTKKKEMSLGSIRLRKEILLYLLSIYNNKTLNSLLSDFENLEKNKWMSNEDIFRFFVNLFNRIQRDTMVLEHHHHHH | soluble |
